Measurements reported in patent publication US20030069395A1 (DYAX, published 2003).
Bridges are numbered along the chain shown (N, C = ends). Where no end group is shown, it is not given here. [ ]: non-standard residue; d: D form. fluorescein = fluorescein label; Ahx = NCCCCCC(=O)O

Legend:
[1] = target: T1, human serum albumin (HSA) (human, UniProt P02768 25-609); assay: fluorescence anisotropy; pH 6.2, 0.14 M NaCl, no caprylate
T1 construct: also called caprylate-biotinylated-HSA
Description: (§1) Affinity determinations were made by first labeling polypeptides on the C-terminal end with NHS-fluorescein. Fluorescence anisotropy measurements were performed in 384-well microplates in a volume of 10 μl in binding buffer using a Tecan Polarion fluorescence polarization plate reader. The concentration of fluorescein labeled peptide was held constant (20 nM), and the concentration of HSA was varied. For pH 6.2, 7.1, and 7.4 binding conditions, a 3 mM phosphate, 0.01% Tween-20 buffer was used. For pH 9.1 binding conditions, a 3 mM sodium bicarbonate buffer, 0.01% Tween-20 nonionic detergent buffer was used. Once NaCl was added to any of these buffers, their pH was adjusted again to achieve the original pH. The binding mixtures were equilibrated for 10 minutes in the microplate at 30° C. prior to performing the measurement. The observed change in anisotropy was fit to the equation below via nonlinear regression to obtain the apparent KD. This equation assumes that the peptide and HSA form a reversible complex with 1:1 stoichiometry.

[2] = target: T1, human serum albumin (HSA); assay: fluorescence anisotropy; pH 7.4, 0.14 M NaCl, no caprylate
Description: as §1

[3] = target: T1, human serum albumin (HSA); assay: fluorescence anisotropy; pH 9.1, 0.14 M NaCl (as the head marks it), no caprylate
Description: as §1

[4] = target: T1, human serum albumin (HSA); assay: fluorescence anisotropy; pH 7.4, 0.14 M NaCl, 0.1% caprylate
Description: as §1
Once all the positive phage isolates were sequenced, peptides corresponding to the display peptide were synthesized. A small amount of constant phage sequence surrounding each varied amino acid sequence region was retained and either a -GGGK-NH₂ (SEQ ID NO: 24) amino acid sequence or -X-K-NH₂ C-terminal tail was added to each peptide, where X is 6-aminohexanoic acid and K-NH₂ is an amidated terminal lysine residue. The constant phage sequence was retained because these residues can often play a role in target binding. To determine its affinity for HSA , each peptide was labeled with fluorescein on the C-terminal lysine side chain.

[5] = target: T1, human serum albumin (HSA); assay: fluorescence anisotropy, truncated peptides
Description: as §1

[6] = target: T1, human serum albumin (HSA); assay: fluorescence anisotropy; buffer not named in Table 2
[7] = target: pig serum albumin (Pig, UniProt P08835 25-607); assay: fluorescence anisotropy; 3 mM phosphate, pH 6.2, 0 M NaCl
[8] = target: rabbit serum albumin (Rabbit, UniProt P49065 25-608); assay: as above
[9] = target: T2, chicken ovalbumin (Chicken, UniProt P01012 2-386); assay: fluorescence anisotropy; PBS, pH 7.4, 0.14 M NaCl; negative control
T2 construct: Negative control; also called Chicken (egg)
T2 sequence (looked up): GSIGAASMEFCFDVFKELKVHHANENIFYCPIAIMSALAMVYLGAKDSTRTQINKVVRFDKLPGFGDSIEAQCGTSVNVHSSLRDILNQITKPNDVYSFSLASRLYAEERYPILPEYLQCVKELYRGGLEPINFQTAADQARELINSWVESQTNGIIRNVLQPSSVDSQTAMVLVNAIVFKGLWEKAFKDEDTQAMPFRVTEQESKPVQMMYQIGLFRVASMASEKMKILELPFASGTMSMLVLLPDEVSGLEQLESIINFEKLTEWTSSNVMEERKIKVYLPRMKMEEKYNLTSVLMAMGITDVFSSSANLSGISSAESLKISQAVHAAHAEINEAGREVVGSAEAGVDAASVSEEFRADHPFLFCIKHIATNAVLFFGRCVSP

[10] = target: T2, chicken ovalbumin; assay: fluorescence anisotropy; 3 mM phosphate, pH 6.2, 0 M NaCl; negative control
[11] = target: T1, human serum albumin (HSA); assay: fluoresceinated peptide; 3 mM phosphate buffer, pH 6.2, no salt
Description: as §1
(§2) Each of the polypeptides was fluoresceinated and tested for binding against an immobilized HSA target as described above.

[12] = target: T1, human serum albumin (HSA); assay: fluoresceinated peptide; PBS
Description: as §1, §2

[13] = target: T1, human serum albumin (HSA); assay: phage ELISA on caprylate-biotinylated HSA held on streptavidin wells; TN12/1 solution-capture selection

Sequence of pig serum albumin (P08835 25-607 limits assumed): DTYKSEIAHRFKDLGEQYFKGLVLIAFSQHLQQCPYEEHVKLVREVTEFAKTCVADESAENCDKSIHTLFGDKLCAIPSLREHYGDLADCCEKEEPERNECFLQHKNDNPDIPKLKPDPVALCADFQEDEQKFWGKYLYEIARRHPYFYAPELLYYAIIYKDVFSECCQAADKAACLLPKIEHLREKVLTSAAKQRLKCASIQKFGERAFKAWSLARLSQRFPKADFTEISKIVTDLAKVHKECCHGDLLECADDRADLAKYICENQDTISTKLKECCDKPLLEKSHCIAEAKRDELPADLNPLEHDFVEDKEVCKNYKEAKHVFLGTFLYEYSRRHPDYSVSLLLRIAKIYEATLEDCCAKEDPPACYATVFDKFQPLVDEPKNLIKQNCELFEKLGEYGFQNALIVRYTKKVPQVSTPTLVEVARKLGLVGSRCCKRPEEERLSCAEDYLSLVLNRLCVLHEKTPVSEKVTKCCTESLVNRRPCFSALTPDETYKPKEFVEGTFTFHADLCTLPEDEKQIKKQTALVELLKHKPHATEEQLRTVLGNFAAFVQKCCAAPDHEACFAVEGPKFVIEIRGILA
Sequence of rabbit serum albumin (P49065 25-608 limits assumed): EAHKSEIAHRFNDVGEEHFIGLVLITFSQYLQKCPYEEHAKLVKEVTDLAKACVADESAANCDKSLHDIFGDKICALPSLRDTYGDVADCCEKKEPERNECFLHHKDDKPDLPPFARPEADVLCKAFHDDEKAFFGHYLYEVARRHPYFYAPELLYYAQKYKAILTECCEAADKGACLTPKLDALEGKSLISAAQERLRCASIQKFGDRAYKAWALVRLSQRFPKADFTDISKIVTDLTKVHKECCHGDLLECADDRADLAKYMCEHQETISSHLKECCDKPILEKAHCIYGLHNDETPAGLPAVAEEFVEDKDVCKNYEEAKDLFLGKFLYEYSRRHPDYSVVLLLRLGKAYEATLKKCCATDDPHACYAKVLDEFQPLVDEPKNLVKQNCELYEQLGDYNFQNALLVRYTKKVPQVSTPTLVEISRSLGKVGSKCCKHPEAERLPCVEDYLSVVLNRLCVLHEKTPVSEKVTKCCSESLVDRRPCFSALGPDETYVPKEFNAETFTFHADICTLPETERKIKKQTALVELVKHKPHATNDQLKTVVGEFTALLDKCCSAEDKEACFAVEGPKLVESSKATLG

B1: DX-313, Ac-AEGTGDDWDCVTRWANRDQQCWGPDPE-X-K-NH2 (peptide)
peptide: Ac-AEGTGDDWDCVTRWANRDQQCWGPDPE[Ahx]K(fluorescein)-NH2
modifications: disulfide 10-21
Kd [1]: 80 µM
Kd [2]: > 200 µM
Kd [3]: 90 µM

B2: DX-315, Ac-AEGTGDDWDCVTRWANRDQQCWALDPE-X-K-NH2 (peptide)
peptide: Ac-AEGTGDDWDCVTRWANRDQQCWALDPE[Ahx]K(fluorescein)-NH2
modifications: not fully specified (bridges); printed as Ac-AEGTGDDWDCVTRWANRDQQCWALDPE-X-K-NH2; cysteine pairing not given here
Kd [1]: > 200 µM
Kd [4]: > 100 µM

B3: DX-296, Ac-AEGTGSHVGCNNALCMQYAPE-X-K-NH2 (peptide)
peptide: Ac-AEGTGSHVGCNNALCMQYAPE[Ahx]K(fluorescein)-NH2
modifications: disulfide 10-15
Kd [1]: > 100 µM
Kd [4]: > 200 µM

B4: DX-297, Ac-AEGTGSWKVCDHFFCLSPAPE-X-K-NH2 (peptide)
peptide: Ac-AEGTGSWKVCDHFFCLSPAPE[Ahx]K(fluorescein)-NH2
modifications: disulfide 10-15
Kd [1]: > 200 µM
Kd [2]: > 200 µM
Kd [4]: > 200 µM

B5: truncated peptide of DX-236, Ac-AEGTGDFWFCDRIAWYPQHLCGGGK-NH2 (peptide)
peptide: Ac-AEGTGDFWFCDRIAWYPQHLCGGGK(fluorescein)-NH2
modifications: not fully specified (bridges); printed as Ac-AEGTGDFWFCDRIAWYPQHLCGGGK-NH2; cysteine pairing not given here
fold increase in KD against DX-236 (SEQ ID NO: 19) [5]: ~4 fold
Kd [6]: 8.9 µM

B6: DX-298, Ac-AEGTGSNHGCWHFSCIWDAPE-X-K-NH2 (peptide)
peptide: Ac-AEGTGSNHGCWHFSCIWDAPE[Ahx]K(fluorescein)-NH2
modifications: disulfide 10-15
Kd [1]: > 200 µM
Kd [3]: > 200 µM

B7: truncated peptide of DX-236, Ac-FWFCDRIAWYPQHLCEFLDPEGGGK-NH2 (peptide)
peptide: Ac-FWFCDRIAWYPQHLCEFLDPEGGGK(fluorescein)-NH2
modifications: not fully specified (bridges); printed as Ac-FWFCDRIAWYPQHLCEFLDPEGGGK-NH2; cysteine pairing not given here
fold increase in KD against DX-236 (SEQ ID NO: 19) [5]: ~4 fold
Kd [6]: 8.9 µM

B8: DX-319, Ac-AEGTGDDWQCVKDWANRRRGCMADDPE-X-K-NH2 (peptide)
peptide: Ac-AEGTGDDWQCVKDWANRRRGCMADDPE[Ahx]K(fluorescein)-NH2
modifications: disulfide 10-21
Kd [1]: > 200 µM
Kd [2]: > 200 µM

B9: DX-236, Ac-AEGTGDFWFCDRIAWYPQHLCEFLDPEGGGK-NH2 (peptide)
peptide: Ac-AEGTGDFWFCDRIAWYPQHLCEFLDPEGGGK-NH2
modifications: not fully specified; cysteine pairing not given here
Kd [7]: 500 nM
Kd [8]: 500 nM
Kd [9]: > 200 µM
Kd [10]: > 200 µM

B10: alanine mutant of DX-236, Ac-AEGTGDFWFCDRIAWYPQHACEFLDPEGGGK-NH2 (peptide)
peptide: Ac-AEGTGDFWFCDRIAWYPQHACEFLDPEGGGK-NH2
modifications: cysteine pairing not given here; also: fluorescein label, position not given here
Kd [11]: 2000 nM

B11: alanine mutant of DX-236, Ac-AEGTGDFWFCARIAWYPQHLCEFLDPEGGGK-NH2 (peptide)
peptide: Ac-AEGTGDFWFCARIAWYPQHLCEFLDPEGGGK-NH2
modifications: cysteine pairing not given here; also: fluoresceinated, site not given here
Kd [12]: 5 µM

B12: alanine mutant of DX-236, Ac-AEGTGDFWFCDAIAWYPQHLCEFLDPEGGGK-NH2 (peptide)
peptide: Ac-AEGTGDFWFCDAIAWYPQHLCEFLDPEGGGK-NH2
modifications: cysteine pairing not given here; also: fluoresceinated, site not given here
Kd [11]: 1500 nM

B13: alanine mutant of DX-236, Ac-AEGTGDFWFCDRIAAYPQHLCEFLDPEGGGK-NH2 (peptide)
peptide: Ac-AEGTGDFWFCDRIAAYPQHLCEFLDPEGGGK-NH2
modifications: cysteine pairing not given here; also: fluoresceinated, site not given here
Kd [11]: 1400 nM

B14: alanine mutant of DX-236, Ac-AEGTGDFWFCDRIAWYAQHLCEFLDPEGGGK-NH2 (peptide)
peptide: Ac-AEGTGDFWFCDRIAWYAQHLCEFLDPEGGGK-NH2
modifications: cysteine pairing not given here; also: fluoresceinated, site not given here
Kd [11]: 1300 nM

B15: alanine mutant of DX-236, Ac-AEGTGDFWFCDRIAWYPAHLCEFLDPEGGGK-NH2 (peptide)
peptide: Ac-AEGTGDFWFCDRIAWYPAHLCEFLDPEGGGK-NH2
modifications: cysteine pairing not given here; also: fluoresceinated, site not given here
Kd [11]: 2200 nM

B16: alanine mutant of DX-236, Ac-AEGTGDFAFCDRIAWYPQHLCEFLDPEGGGK-NH2 (peptide)
peptide: Ac-AEGTGDFAFCDRIAWYPQHLCEFLDPEGGGK-NH2
modifications: cysteine pairing not given here; also: fluoresceinated, site not given here
Kd [11]: 2300 nM

B17: alanine mutant of DX-236, Ac-AEGTGDFWFCDRIAWAPQHLCEFLDPEGGGK-NH2 (peptide)
peptide: Ac-AEGTGDFWFCDRIAWAPQHLCEFLDPEGGGK-NH2
modifications: cysteine pairing not given here; also: fluoresceinated, site not given here
Kd [11]: 1400 nM

B18: alanine mutant of DX-236, Ac-AEGTGDAWFCDRIAWYPQHLCEFLDPEGGGK-NH2 (peptide)
peptide: Ac-AEGTGDAWFCDRIAWYPQHLCEFLDPEGGGK-NH2
modifications: cysteine pairing not given here; also: fluoresceinated, site not given here
Kd [11]: 5100 nM

B19: alanine mutant of DX-236, Ac-AEGTGAFWFCDRIAWYPQHLCEFLDPEGGGK-NH2 (peptide)
peptide: Ac-AEGTGAFWFCDRIAWYPQHLCEFLDPEGGGK-NH2
modifications: cysteine pairing not given here; also: fluoresceinated, site not given here
Kd [11]: 5100 nM

B20: phage isolate displaying DWDCVTRWANRDQQCWGP (SEQ ID NO: 247) (peptide)
chain: DWDCVTRWANRDQQCWGP
modifications: not fully specified (bridges); cysteine pairing not given here
notes: Whole phage in the ELISA; not shown: protein III of M13 phage; the display peptide stands at its amino terminus
binding result [13]: binds
